According to EP4703386A1 (Shanghai Sinobay Biotechnology Co., Ltd., dated 2026):

Assays:
[1] = target: T1, CD276 protein on tumor target cells (NCI-H292, SK-OV-3) (human, UniProt Q5ZPR3 29-534); assay: flow cytometry on NCI-H292 cells, IgG-Fc-PE second antibody
T1 construct: whole, on cells; for SK-OV-3 it is implied by the use of CD276-targeted BiTE and CAR; also called B7-H3; CD276-expressing target cells
T1 sequence (looked up): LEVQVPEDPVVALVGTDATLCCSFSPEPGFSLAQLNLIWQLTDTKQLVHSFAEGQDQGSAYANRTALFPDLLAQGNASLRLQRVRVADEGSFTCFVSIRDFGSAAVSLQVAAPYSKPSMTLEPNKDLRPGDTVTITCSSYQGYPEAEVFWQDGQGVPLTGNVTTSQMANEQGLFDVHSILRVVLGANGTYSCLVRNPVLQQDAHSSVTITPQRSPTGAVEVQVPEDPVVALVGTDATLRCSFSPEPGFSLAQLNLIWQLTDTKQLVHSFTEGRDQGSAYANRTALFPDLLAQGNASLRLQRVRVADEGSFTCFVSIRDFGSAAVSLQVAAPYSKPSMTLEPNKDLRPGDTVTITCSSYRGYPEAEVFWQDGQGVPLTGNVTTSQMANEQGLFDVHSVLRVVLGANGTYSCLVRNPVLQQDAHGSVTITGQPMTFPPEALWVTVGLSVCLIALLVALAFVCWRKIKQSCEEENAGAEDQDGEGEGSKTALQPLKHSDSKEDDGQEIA

[2] = target: T1, CD276 protein on tumor target cells …; assay: cell-based or functional assay
[3] = target: T1, CD276 protein on tumor target cells …; assay: flow cytometry on NCI-H292 cell line (Fig. 3)

B1: Hu012-24 (antibody, IgG1, V domains shown)
VH: EVQLVQSGGGLVKPGGSLRLSCAASGFTFSRHSMNWVRQAPGKGLEWVSSISSNDEHIIYADSVKGRFTISRDNSKNTLYLEMNSLRAEDTAVYYCARASRYGGSYYGLDYWGQGTLVTVSS
VL: QTVVTQEPSFSVSPGGTVTLTCGLTSGSVSTTYFPSWYQQTPGQPPRRLIYNTNTRSSGVPDRFSGSIVGIKAALTITGAQAEDESDYYCALYLGSGIVEFGGGTKLTVL
notes: Full-length IgG1 (AbVec-hIgG1, AbVec-hIgKappa); also called candidate antibody Hu012-24
positive rate [1]: ~100%

B2: CD276(Hu012-7)BiTE (bispecific antibody)
chain: DIVMTQSPSSLSTSIGDRVTITCRASQGISNFLAWFQQKPGKAPKSLIYAASRLQSGVPSKFSGSGSGTNFTLTISSLQPEDFATYYCQQYDSYPLTFGGGTKVEIKGGGGSGGGGSGGGGSEVQLVESGGGVVQPGRSLTLSCAASGFTFNGYSMHWVRQAPGKGLEWVAVMSSDGGNKYYADSVKGRFTISRDNSKNTLYLQMNGLRPEDTAVYYCARAVSSGWSLPFDFWGHGTLVTVSSGGGGSQVQLVQSGAEVKKPGASVKVSCKASGYTFTRYTMHWVRQAPGQGLEWMGYINPSRGYTNYNQKFKDRVTITADKSTSTAYMELSSLRSEDTAVYYCARYYDDHYCLDYWGQGTTVTVSSGGGGSGGGGSGGGGSGSEIVLTQSPATLSLSPGERATLSCSASSSVSYMNWYQQKPGKAPKRLIYDTSKLASGVPSRFSGSGSGTDFTLTINSLEAEDAATYYCQQWSSNPFTFGQGTKVEIKR
fold increase in killing the NCI-H292 tumor cell line against control BiTE [2]: 1.2 fold | fold increase in killing the SK-OV3 tumor cell line against control BiTE [2]: 2.1 fold

B3: Hu012-7-4-1BB-CD3ζ chimeric antigen receptor on lentivirus-transduced T cells (other)
chain: GDYKDDDDKGSEVQLVESGGGVVQPGRSLTLSCAASGFTFNGYSMHWVRQAPGKGLEWVAVMSSDGGNKYYADSVKGRFTISRDNSKNTLYLQMNGLRPEDTAVYYCARAVSSGWSLPFDFWGHGTLVTVSSGGGGSGGGGSGGGGSDIVMTQSPSSLSTSIGDRVTITCRASQGISNFLAWFQQKPGKAPKSLIYAASRLQSGVPSKFSGSGSGTNFTLTISSLQPEDFATYYCQQYDSYPLTFGGGTKVEIKTRTTTPAPRPPTPAPTIASQPLSLRPEACRPAAGGAVHTRGLDFACDIYIWAPLAGTCGVLLLSLVITLYCKRGRKKLLYIFKQPFMRPVQTTQEEDGCSCRFPEEEEGGCELRVKFSRSADAPAYKQGQNQLYNELNLGRREEYDVLDKRRGRDPEMGGKPRRKNPQEGLYNELQKDKMAEAYSEIGMKGERRRGKGHDGLYQGLSTATKDTYDALHMQALPPR
killing efficiency on SKOV3 cells, effector to target ratio 1:1 [2]: ~30% | killing efficiency on SKOV3 cells, effector to target ratio 2:1 [2]: > 60%

B4: Hu012-13 (antibody, IgG1, V domains shown)
VH: EVQLVQSGAEVKKPGASVKVSCKASGYTFTSYGISWVRQAPGQGLEWMGWISAYNGNTNYAQKLQGRVTMTTDTSTSTAYMELRSLRSDDTAVYYCARAPYYGGYDYWGQGTMVTVSS
VL: ETTLTQSPGTLSLSPGDRATLSCRASQSVRSSYLAWYQQKPGQAPRLVIYGASNRAAGIPDRFSGSGSGTDFTLTISGLEPEDFAVYYCQEYGYSLPNTFGQGTKLEIK
notes: Full-length IgG1 (AbVec-hIgG1, AbVec-hIgKappa); also called candidate antibody Hu012-13
binding result [1]: binds

B5: Hu012-3 (antibody, IgG1, V domains shown)
VH: QVQLVQSGAEVKKPGESLRISCKGSGYSFTSYWISWVRQMPGKGLEWMGRIDPSDSYTNYSPSFQGHVTISADKSISTAYLQWSSLKASDTAMYYCARHDASGGGPSDYWGQGTLVTVSS
VL: QSVLTQPPSVSAAPGQRVTISCSGSSSNIGDHYVSWYQQLPGTAPKLLIYDNNKRPSGIPDRFSGSKSGTSATLGITGLQTGDEADYYCGTWDSSLSVPNWVFGGGTKVTVL
notes: Full-length IgG1 (AbVec-hIgG1, AbVec-hIgKappa); also called candidate antibody Hu012-3
binding result [3]: binds

B6: Hu012-29 (antibody, V domains shown)
VH: EVQLVESGGGLVQPGGSLRLSCAASRNIFRFYTMGWYRQAPEKQRDLVARITSDGTTNYADSVKGRFTISRDNAKNTVYLQMNSLKPEDTAVYYCNTDLPLNTYWAQGTLVTVSS
VL: DIQMTQSPSSLSASVGDRVTITCRASQSISSSLNWYQHKPGKAPKLLIYSASILQSGVPSRFSGSGSGTDYTLTISSLQPEDFATYSCQQSYTTPYTFGLGTKLEIK
notes: Full-length IgG1 (AbVec-hIgG1, AbVec-hIgKappa); also called candidate antibody Hu012-29
binding result [1]: binds

B7: Hu012-1 (antibody, V domains shown)
VH: QVTLKESGGGLVQPGGSLRLSCAASGSIFNMYAMGWYRQAPGKQRELVASITSGGSTHYADSVKGRFTISRDNAKNTMYLQMNSLKPEDTAVYYCRQNDGMDYWGKGTLVTVSS
VL: QAGLTQPPSVSVAPGKTARITCGGNNIGSKSVHWYQQKPGQAPVVVIYDDSDRPSGIPERFSGSNSGNTATLTISRVEAGDEADFYCQVWDSSSDRYVFGTGTKLTVL
notes: Full-length IgG1 (AbVec-hIgG1, GenBank FJ475055.1; AbVec-hIgKappa, GenBank FJ475056.1); also called candidate antibody Hu012-1
positive rate [1]: ~100%

B8: Hu012-27 (antibody, IgG1, V domains shown)
VH: QVQLVQSGGGVVQPGRSLRLSCAASGFTFSSYAMHWVRQAPGKGLEWVAVISYDGSNKYYADSVKGRFTISRDNSKNTLYLQMNSLRAEDTTVYYCARDRRYYSSMDVWGQGTTVTVSS
VL: QTVVTQEPSFSVSPGGTITLTCGLSSGSVSTSYYPSWYQQTPGQAPRTLIYNTNTRSSGVPDRFSGSILGNKAALTITGAQADDESHYYCALHMDSGSWVFGGGTQLTVL
notes: Full-length IgG1 (AbVec-hIgG1, AbVec-hIgKappa); also called candidate antibody Hu012-27
binding result [1]: binds

B9: CD276(Hu012-8)BiTE (bispecific antibody)
chain: NIQMTQSPSSLSASVGDRVTITCRASQTISRYLNWYQQKPGKAPKLLIYAASSLQSGVPSRFSGSGSGADFTLTINTLQPEDFATYYCQQSYRTPQTFGQGTKVEIKGGGGSGGGGSGGGGSQVQLVQSGAEVKKPGASVRVSCKGSGYTFTDHHMYWVRQAPGQGLEWMGRINPNTGVTNYAQKFQGRVSMTRDTSINTVYLELRSLKSDDAAVYYCGRDQVVMVPGVPLDLGMDVWGQGTTVTVSSGGGGSQVQLVQSGAEVKKPGASVKVSCKASGYTFTRYTMHWVRQAPGQGLEWMGYINPSRGYTNYNQKFKDRVTITADKSTSTAYMELSSLRSEDTAVYYCARYYDDHYCLDYWGQGTTVTVSSGGGGSGGGGSGGGGSGSEIVLTQSPATLSLSPGERATLSCSASSSVSYMNWYQQKPGKAPKRLIYDTSKLASGVPSRFSGSGSGTDFTLTINSLEAEDAATYYCQQWSSNPFTFGQGTKVEIKR
fold increase in killing the NCI-H292 tumor cell line against control BiTE [2]: 1.2 fold | fold increase in killing the SK-OV3 tumor cell line against control BiTE [2]: 2 fold

B10: Hu012-6 (antibody, IgG1, V domains shown)
VH: QMQLVQSGGGLVQPGGSLRLSCAASGFTFSSYWMSWVRQAPGKGLEWVANIKQDGSEKYYVDSVKGRFTISRDNAKNSLYLQMNSLRAEDTAVYYCARSPHYDFWRRDYYYGMDVWGQGTLVTVSS
VL: QSVLTQPPSVSATPGQTVTISCSGSTSNIATNYVSWYQHLPGSAPKLLIYDNNKRPSGIPDRFSGSKSGTSATLDIIGLQTGDEADYYCGVWDPSLTTYVFGTGTQLTAL
notes: Full-length IgG1 (AbVec-hIgG1, AbVec-hIgKappa); also called candidate antibody Hu012-6
binding result [3]: binds

B11: Hu012-21 (antibody, IgG1, V domains shown)
VH: EVQLVQSGGGVVQPGRSLRLSCAASGFTFSSYGMHWVRQAPGKGLEWVAVISYDGSNKYYADSVKGRFTISRDNSKDTLYLQMNSLRAEDTAVYYCAKDKLMGWHNYGMDVWGQGTTVTVSS
VL: AIQLTQSPSSLSASVGDRVTITCRASQSINSYLNWYQQKPGKAPKVLIYAASNLQSGVPSRFSGSGSGTDFTLTISSLQPEDFATYYCQQSYSTPPTFGQGTKLEIK
notes: Full-length IgG1 (AbVec-hIgG1, AbVec-hIgKappa); also called candidate antibody Hu012-21
binding result [1]: binds

B12: Hu012-14 (antibody, IgG1, V domains shown)
VH: EVQLVETGGGLVQPGGSLRLSCAASGFTFSSYGMTWVRQPPGKGLEWVSHISGSGTNTYYADSVKGRFTISRDNSKNTLYLQMNNLGAEDTAVYYCAKLKWGHSGYGDYWGQGTTVTVSS
VL: EIVLTQSPATLSLSPGERATLSCRASQTISRYLAWYQQKPGQAPRLLIYDASNRATGIPARFSGSGSDTDFTLTISSIEPEDFAVYYCQERSNWPQVTFGPGTKLEIK
notes: Full-length IgG1 (AbVec-hIgG1, AbVec-hIgKappa); also called candidate antibody Hu012-14
binding result [1]: binds

B13: Hu012-8 (antibody, IgG1, V domains shown)
VH: QVQLVQSGAEVKKPGASVRVSCKGSGYTFTDHHMYWVRQAPGQGLEWMGRINPNTGVTNYAQKFQGRVSMTRDTSINTVYLELRSLKSDDAAVYYCGRDQVVMVPGVPLDLGMDVWGQGTTVTVSS
VL: NIQMTQSPSSLSASVGDRVTITCRASQTISRYLNWYQQKPGKAPKLLIYAASSLQSGVPSRFSGSGSGADFTLTINTLQPEDFATYYCQQSYRTPQTFGQGTKVEIK
notes: Full-length IgG1; also called candidate antibody Hu012-8
positive rate [1]: ~100%
